We go through one molecule from patent US7629135B2, “Toll-like receptor agonists and antagonists and methods of use thereof” (The Board of Trustees of the University of Illinois, priority 2006, dated 2009).

Experiment [1] deals with mouse bone marrow derived macrophages (BMDM). Description: G-CSF secretion in mouse BMDM (ELISA). Format: cell-based. The settings on record: for secreted mouse G-CSF: mouse BMDM. As for the experimental part: SAA induces G-CSF expression in monocytes and macrophages: To determine whether SAA plays a role in neutrophilia, the ability of SAA to stimulate G-CSF expression was investigated. Human peripheral blood monocytes (PBMC) were incubated with SAA, and the concentration of secreted G-CSF in the culture medium was determined at various time points after stimulation. The concentration of SAA used in this experiment (1 μM) was well within its physiological range (0.08 μM to 80 μM). […] Since subsequent studies used mice for measurement of G-CSF secretion and neutrophilia, SAA-induced G-CSF expression in mouse bone marrow derived macrophages (BMDM) was determined, of which 98% were F4/80^+ CD14^+ based on flow cytometry analysis. […] The basal level of G-CSF remained stable at approximately 42 pg/ml/10^6 cells over the entire course of incubation.
It was next determined whether induction of G-CSF expression was a primary function of SAA or resulted from contaminating LPS in the SAA preparation. The LPS concentration in the recombinant SAA preparation was ≦0.1 ng/μg protein, translating into ≦1.14 ng/ml LPS in a typical experiment with 1 μM SAA. LPS at this or 10-fold higher concentrations was tested for its effect on the expression of G-CSF. […] Given that most proteins are heat labile while LPS is heat resistant, the ability of heat-treated SAA (1 μM) and LPS (1 μg/ml) to stimulate G-CSF secretion in mouse BMDM was examined. After boiling for 25 min, LPS retained its ability to induce G-CSF production by ˜83%. […] In parallel experiments, polymyxin B, an amphiphilic cyclic polycationic peptide that specifically binds to LPS and blocks the cytokine-inducing effect of LPS (Stokes et al., 1989), was used to treat SAA or LPS prior to incubation with BMDM. […] Under the same experimental conditions, polymyxin B reduced LPS-stimulated G-CSF secretion by more than 70%.
It was previously shown that FPRL1 is involved in SAA-induced IL-8 production in human neutrophils (He et al., 2003). It has also been shown that SAA binds to FPRL1 and stimulates the production of matrix metalloproteinase (O'Hara et al., 2004). […] A role of TLR2 in SAA-stimulated G-CSF expression was examined.
Cell preparation and culture: Human peripheral blood monocytes were prepared from fresh, heparinized venous blood by Ficoll-Hypaque density-gradient centrifugation. Blood drawing followed a protocol approved by the Institutional Review Board at the University of Illinois at Chicago. Purified monocytes (>93% CD14^+ by flow cytometry) were kept in nonadherent condition in RPMI 1640 containing 0.5% FBS and maintained at 37° C. Mouse macrophages were differentiated from bone marrow cells. Mouse bone marrow cells were aspirated from the femurs of 8-12-week-old mice and cultured at 37° C. in 5% CO2 in RPMI 1640 medium containing 10% FBS, 15% L-cell conditional medium, 10 mM HEPES, 2 mM L-glutamine, 100 IU/ml penicillin, and 50 μg/ml streptomycin. The medium was changed every three days. Macrophages (about 98% F4/80+ by flow cytometry) were obtained after 7 days of culture. The mouse macrophage cell line RAW264.7 cells were maintained in DMEM medium supplemented with 10% FBS, 10 mM HEPES, 2 mM L-glutamine, 100 IU/ml penicillin, and 50 μg/ml streptomycin. TLR2-HeLa cells were generated by transfection of HeLa cell with the expression construct pUNO-hTLR2 (InvivoGen). Stable transfectants were selected with Blasticidin at 20 μg/ml for 2 weeks. Mock-transfected HeLa cells were generated similarly, with a pUNO empty vector. Cells were maintained in DMEM supplemented with 10% heat-inactivated FBS, 2 mM L-glutamine, 100 IU/ml penicillin, and 50 μg/ml streptomycin. Expression of TLR2 was confirmed using an anti-TLR2 antibody (eBioscience) and FTTC-conjugated anti-mouse antibody, on a FACSCalibur flow cytometer (Becton Dickinson). FIGS. 12 and 13 are plasmid maps of pUNO-hTLR2 and pNF-κB-Luc, respectively. […]
In general terms: In an ELISA, binding on a coated surface is turned into a signal by an enzyme label.

In another experiment the test system is C57BL/6 mice. Description: SAA-induced neutrophilia in mice. Format: in vivo, mouse. As for the experimental part: SAA stimulates neutrophilia through G-CSF: To investigate whether SAA-induced G-CSF secretion contributes to neutrophilia, in vivo studies were conducted with daily administration of SAA in mice. C57BL/6 mice were injected subcutaneously (s.c.) with a daily dose of 120 μg SAA/kg body weight (˜3 μg of SAA each mouse) for 7 consecutive days. At different time points after the injection was initiated, blood neutrophil numbers were determined and the results were compared to neutrophil numbers prior to SAA administration. […] To establish a causal relationship between SAA-induced G-CSF production and neutrophilia in mice, wild-type C57BL/6 mice wre compared with csf3^−/− mice for changes in neutrophil count.
SAA-induced neutrophilia: For analysis of SAA-induced neutrophil increase, SAA was injected subcutaneously into both G-CSF deficient (csf3^−/−) (n=5) and csf3^+/+ (n=5), age- and sex-matched littermates (8-9 weeks, male), at doses of 120 μg/kg/d in 200 μl PBS. SAA was administered daily for 7 consecutive days (168 h). Blood samples were collected before and at 48, 120, and 168 h after the initial SAA injection. Age and sex-matched mice of both tlr2^−/− (n=7) and C57BL/6 (n=7) were also used for this experiment. Blood was collected by eye puncture using heparinized capillaries and placed into EDTA-treated tubes. Total white blood cell (WBC) count and WBC differential count were determined using a Hemavet 950FS multispecies hematology analyzer (Drew Scientific).

B1: SAA: Recombinant human SAA purchased from PeproTech; major acute-phase protein of 104 amino acids (protein, UniProt P0DJI8 19-122, looked up)
Serum amyloid A-1 protein: RSFFSFLGEAFDGARDMWRAYSDMREANYIGSDKYFHARGNYDAAKRGPGGAWAAEVITDARENIQRFFGHGAEDSLADQAANEWGRSGKDPNHFRPAGLPEKY
For the molecule B1, the “maximal G-CSF production” value in experiment [1] (BMDM, SAA, experiments of FIG. 4) came out at 446 pg/ml/10^6 cells. The “ability to stimulate G-CSF secretion after heat treatment” value in experiment [1] (SAA 1 μM, boiled 25 min, BMDM, 16 h) is “could no longer stimulate G-CSF secretion”. Further, the “secreted mouse G-CSF” value in experiment [1] (SAA 1 μM, after 8 h) was 155 pg/ml/10^6 cells; in experiment [1] (SAA 1 μM, after 24 h), 965 pg/ml/10^6 cells. Also, the “ability to induce G-CSF protein secretion in tlr2−/− BMDM” value in experiment [1] (tlr2−/− vs wild-type BMDM, SAA 1 μM) is “drastically reduced”. Moreover, in the experiment with C57BL/6 mice (C57BL/6 mice, SAA 120 μg/kg s.c. daily for 7 days, vs PBS, from 48 h), the “peripheral blood neutrophil numbers” value is listed as “significant rise of neutrophil numbers”. Also, the “SAA-stimulated increase in peripheral blood neutrophils in tlr2−/− mice vs wild-type” value in the experiment with C57BL/6 mice (SAA s.c. up to 7 days) is “significantly lower”. For the same molecule, the “peripheral blood neutrophil count response in csf3−/− mice vs wild-type” value in the experiment on C57BL/6 mice (csf3−/− mice, SAA 120 μg/kg/d s.c., 48, 120 and 168 h) is reported as “significantly reduced response”.
